Laboratory results as given in publication PMC4945878.

Tests used:
Claspin Cdel2 = Claspin Cdel2 (human, UniProt Q9HAW4 1-1339, del1101-1209); assay: EMSA; higher binding than full-length; 10 mM Tris-HCl pH 7.5, 40 ug/ml BSA, 1 mM DTT, EDTA (50 mM as printed for EMSA; 0.5 mM for filter binding), 20 mM K-glutamate, 8% glycerol, 30 C, 1 h
Claspin Cdel1 = Claspin Cdel1 (human, UniProt Q9HAW4 1-985+=GS+1210-1339, internal_change); assay: EMSA; higher affinity than full-length; 10 mM Tris-HCl pH 7.5, 40 ug/ml BSA, 1 mM DTT, EDTA (50 mM as printed for EMSA; 0.5 mM for filter binding), 20 mM K-glutamate, 8% glycerol, 30 C, 1 h
[1] = target: Claspin #25 (N-terminal polypeptide) (human, UniProt Q9HAW4 1-896); assay: EMSA; plus #13 DE/A (aa897-1209) 1.5 or 3 pmol, no significant inhibition; 10 mM Tris-HCl pH 7.5, 40 ug/ml BSA, 1 mM DTT, EDTA (50 mM as printed for EMSA; 0.5 mM for filter binding), 20 mM K-glutamate, 8% glycerol, 30 C, 1 h
[2] = target: Claspin wild-type full-length (human, UniProt Q9HAW4 1-1339); assay: EMSA; 0.5 and 1.0 pmol protein, 20 fmol DNA; much lower affinity than C-terminal deletions; 10 mM Tris-HCl pH 7.5, 40 ug/ml BSA, 1 mM DTT, EDTA (50 mM as printed for EMSA; 0.5 mM for filter binding), 20 mM K-glutamate, 8% glycerol, 30 C, 1 h

Measured: binding result

Sequence of Claspin wild-type full-length (Q9HAW4 whole entry): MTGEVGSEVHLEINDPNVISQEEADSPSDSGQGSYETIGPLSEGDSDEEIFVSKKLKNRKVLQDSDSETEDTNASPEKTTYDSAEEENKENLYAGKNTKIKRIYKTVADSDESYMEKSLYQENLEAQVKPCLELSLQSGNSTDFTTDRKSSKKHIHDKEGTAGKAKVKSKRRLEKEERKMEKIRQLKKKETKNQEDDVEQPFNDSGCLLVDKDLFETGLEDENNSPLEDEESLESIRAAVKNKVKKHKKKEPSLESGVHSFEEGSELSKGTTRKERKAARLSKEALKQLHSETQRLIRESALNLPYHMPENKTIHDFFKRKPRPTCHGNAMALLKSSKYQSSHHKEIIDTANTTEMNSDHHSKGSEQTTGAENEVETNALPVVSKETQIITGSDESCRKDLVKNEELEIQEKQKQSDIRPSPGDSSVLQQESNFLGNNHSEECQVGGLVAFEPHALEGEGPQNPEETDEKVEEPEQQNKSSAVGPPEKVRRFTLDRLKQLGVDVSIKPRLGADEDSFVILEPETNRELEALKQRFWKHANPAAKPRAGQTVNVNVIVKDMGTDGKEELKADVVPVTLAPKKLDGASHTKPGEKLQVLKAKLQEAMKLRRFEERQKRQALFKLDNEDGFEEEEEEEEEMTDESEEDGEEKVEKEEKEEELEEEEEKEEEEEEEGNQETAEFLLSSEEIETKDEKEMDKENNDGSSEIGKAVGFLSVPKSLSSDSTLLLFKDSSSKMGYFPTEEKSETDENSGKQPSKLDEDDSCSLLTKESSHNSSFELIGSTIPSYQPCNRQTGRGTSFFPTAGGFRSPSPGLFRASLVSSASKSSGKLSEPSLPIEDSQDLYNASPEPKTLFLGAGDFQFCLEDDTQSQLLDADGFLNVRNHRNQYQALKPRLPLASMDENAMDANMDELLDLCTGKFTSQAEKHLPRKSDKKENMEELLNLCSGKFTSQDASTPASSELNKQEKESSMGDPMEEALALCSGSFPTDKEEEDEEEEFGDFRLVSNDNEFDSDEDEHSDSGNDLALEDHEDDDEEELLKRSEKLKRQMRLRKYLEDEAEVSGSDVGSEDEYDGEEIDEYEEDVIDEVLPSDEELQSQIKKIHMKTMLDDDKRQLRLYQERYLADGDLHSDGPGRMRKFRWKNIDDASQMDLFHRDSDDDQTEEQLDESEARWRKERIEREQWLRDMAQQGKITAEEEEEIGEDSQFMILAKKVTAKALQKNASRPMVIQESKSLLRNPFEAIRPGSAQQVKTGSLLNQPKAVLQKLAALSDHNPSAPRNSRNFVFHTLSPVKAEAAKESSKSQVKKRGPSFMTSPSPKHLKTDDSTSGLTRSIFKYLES
Sequence of Claspin Cdel2 (Q9HAW4 other isoform, or with tags, fused parts or gaps del1101-1209): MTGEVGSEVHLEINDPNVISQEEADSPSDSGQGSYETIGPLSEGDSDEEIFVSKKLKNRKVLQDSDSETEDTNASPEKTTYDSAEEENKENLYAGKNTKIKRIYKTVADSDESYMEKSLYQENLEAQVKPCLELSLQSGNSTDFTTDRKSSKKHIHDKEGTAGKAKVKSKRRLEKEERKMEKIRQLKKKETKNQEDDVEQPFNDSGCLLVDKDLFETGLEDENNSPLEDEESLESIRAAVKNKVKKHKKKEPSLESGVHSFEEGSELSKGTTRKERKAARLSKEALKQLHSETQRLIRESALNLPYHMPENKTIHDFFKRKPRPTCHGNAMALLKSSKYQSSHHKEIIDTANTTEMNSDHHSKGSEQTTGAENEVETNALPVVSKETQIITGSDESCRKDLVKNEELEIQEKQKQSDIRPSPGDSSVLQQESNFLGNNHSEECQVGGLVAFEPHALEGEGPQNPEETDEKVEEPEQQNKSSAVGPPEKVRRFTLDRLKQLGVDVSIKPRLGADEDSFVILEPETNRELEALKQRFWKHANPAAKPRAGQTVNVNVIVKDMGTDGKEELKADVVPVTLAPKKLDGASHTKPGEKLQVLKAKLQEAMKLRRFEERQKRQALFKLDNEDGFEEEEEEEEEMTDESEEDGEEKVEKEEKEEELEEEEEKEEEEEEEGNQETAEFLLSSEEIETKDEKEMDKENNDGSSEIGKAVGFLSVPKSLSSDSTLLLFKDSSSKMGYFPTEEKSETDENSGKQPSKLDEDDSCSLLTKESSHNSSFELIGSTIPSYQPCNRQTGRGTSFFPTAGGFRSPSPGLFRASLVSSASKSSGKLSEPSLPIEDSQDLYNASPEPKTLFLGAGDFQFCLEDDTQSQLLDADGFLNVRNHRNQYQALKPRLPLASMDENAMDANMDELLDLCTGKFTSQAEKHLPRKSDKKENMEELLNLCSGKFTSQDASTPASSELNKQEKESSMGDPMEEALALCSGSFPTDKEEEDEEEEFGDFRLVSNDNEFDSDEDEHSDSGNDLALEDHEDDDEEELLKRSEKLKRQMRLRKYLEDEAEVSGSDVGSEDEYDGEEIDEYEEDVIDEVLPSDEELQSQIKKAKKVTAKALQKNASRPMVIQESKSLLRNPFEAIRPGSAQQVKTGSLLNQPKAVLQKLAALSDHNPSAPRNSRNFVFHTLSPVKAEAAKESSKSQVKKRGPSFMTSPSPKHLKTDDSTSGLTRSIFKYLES
Sequence of Claspin Cdel1 (Q9HAW4 other isoform, or with tags, fused parts or gaps): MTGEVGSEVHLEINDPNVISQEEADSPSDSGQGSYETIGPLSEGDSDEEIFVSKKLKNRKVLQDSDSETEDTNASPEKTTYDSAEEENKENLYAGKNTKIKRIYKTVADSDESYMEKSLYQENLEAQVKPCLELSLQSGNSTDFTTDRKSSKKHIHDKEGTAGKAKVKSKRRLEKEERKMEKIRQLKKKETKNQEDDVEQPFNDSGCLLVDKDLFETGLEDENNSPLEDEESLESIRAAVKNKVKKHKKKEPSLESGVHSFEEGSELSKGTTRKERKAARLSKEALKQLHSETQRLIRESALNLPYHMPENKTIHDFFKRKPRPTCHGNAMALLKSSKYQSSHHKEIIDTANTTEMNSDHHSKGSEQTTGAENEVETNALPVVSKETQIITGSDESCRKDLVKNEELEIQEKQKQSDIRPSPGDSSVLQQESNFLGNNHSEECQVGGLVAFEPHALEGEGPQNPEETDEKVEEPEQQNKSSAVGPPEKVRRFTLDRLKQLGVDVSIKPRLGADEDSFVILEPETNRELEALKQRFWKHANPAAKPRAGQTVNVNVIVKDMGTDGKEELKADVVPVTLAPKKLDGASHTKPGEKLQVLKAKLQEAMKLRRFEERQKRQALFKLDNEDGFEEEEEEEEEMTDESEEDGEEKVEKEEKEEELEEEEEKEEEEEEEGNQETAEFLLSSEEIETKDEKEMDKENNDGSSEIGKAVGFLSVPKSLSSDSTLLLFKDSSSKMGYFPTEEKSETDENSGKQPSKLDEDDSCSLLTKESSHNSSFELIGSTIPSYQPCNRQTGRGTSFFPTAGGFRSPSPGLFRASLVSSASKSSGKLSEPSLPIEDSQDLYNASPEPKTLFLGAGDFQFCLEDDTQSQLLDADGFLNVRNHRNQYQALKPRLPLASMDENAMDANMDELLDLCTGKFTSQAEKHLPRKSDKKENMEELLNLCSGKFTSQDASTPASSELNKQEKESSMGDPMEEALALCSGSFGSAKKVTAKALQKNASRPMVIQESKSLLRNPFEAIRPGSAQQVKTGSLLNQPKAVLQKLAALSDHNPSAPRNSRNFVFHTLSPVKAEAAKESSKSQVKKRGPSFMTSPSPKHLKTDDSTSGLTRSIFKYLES
Sequence of Claspin #25 (N-terminal polypeptide) (Q9HAW4 1-896): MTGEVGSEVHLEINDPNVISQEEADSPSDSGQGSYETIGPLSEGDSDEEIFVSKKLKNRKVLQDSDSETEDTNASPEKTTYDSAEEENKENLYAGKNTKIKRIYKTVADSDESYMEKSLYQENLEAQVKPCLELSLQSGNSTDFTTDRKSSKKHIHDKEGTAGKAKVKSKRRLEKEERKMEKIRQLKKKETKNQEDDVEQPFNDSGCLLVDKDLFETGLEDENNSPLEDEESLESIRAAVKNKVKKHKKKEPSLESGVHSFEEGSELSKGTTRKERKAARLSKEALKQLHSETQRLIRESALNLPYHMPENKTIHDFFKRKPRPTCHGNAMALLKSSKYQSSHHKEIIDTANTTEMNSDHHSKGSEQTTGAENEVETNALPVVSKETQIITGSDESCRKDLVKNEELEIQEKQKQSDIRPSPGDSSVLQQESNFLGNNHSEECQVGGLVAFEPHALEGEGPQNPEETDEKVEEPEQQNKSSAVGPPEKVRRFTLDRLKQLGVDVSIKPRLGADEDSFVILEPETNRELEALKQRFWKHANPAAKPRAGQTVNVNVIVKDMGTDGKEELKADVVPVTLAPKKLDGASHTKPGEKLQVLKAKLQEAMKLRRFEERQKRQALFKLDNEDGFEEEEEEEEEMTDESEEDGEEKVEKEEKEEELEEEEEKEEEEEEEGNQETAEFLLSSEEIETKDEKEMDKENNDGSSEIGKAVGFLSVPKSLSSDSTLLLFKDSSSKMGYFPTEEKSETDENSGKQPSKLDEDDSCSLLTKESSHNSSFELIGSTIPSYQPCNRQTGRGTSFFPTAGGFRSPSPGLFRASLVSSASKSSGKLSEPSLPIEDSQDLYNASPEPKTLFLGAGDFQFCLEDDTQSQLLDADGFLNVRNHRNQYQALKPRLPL

B1: Y-fork DNA (mixed)
DNA 1: AACGTCGTGACTGGGCACTTGATCGGCCAACCTTTTTTTTTTTTTTTTTTTTTTTTTTTTTTTT
DNA 2: TTTTTTTTTTTTTTTTTTTTTTTTTTTTTTTTGGTTGGCCGATCAAGTGCCCAGTCACGACGTT
binds: all assays above
